B1: ANKRD40 (parent)
chain: VRIQNPSLRENDFIEIELDRQELT

Variants of: B1
Assay: protein stability index of a GFP-peptide fusion (GPS, HEK-293T) (PSI 1-6); higher = more stable
Settings: c terminus: a fixed tail appended
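Also: lentivirally expressed fusions sorted by FACS into six bins by GFP to DsRed ratio, PSI derived from sequencing read proportions per bin multiplied by bin number.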

Variant	protein stability index
VRIQNPVLRENDFIEIELDRQELT [S7V]	2.81
VRIQNPPLRENDFIEIELDRQELT [S7P]	3.72
VRIQNPFLRENDFIEIELDRQELT [S7F]	1.45
VRIQNPQLRENDFIEIELDRQELT [S7Q]	2.82
VRIQNPALRENDFIEIELDRQELT [S7A]	2.76
VRIQNPRLRENDFIEIELDRQELT [S7R]	2.39
VRIQNPCLRENDFIEIELDRQELT [S7C]	2.33
VRIQNPHLRENDFIEIELDRQELT [S7H]	2.13
VRIQNPKLRENDFIEIELDRQELT [S7K]	2.81
VRIQNPILRENDFIEIELDRQELT [S7I]	2.56
VRIQNPYLRENDFIEIELDRQELT [S7Y]	2.16
VRIQNPDLRENDFIEIELDRQELT [S7D]	2.91
VRIQNPGLRENDFIEIELDRQELT [S7G]	2.26
VRIQNPTLRENDFIEIELDRQELT [S7T]	3.04
VRIQNPWLRENDFIEIELDRQELT [S7W]	2.2
VRIQNPMLRENDFIEIELDRQELT [S7M]	2.01
VRIQNPELRENDFIEIELDRQELT [S7E]	2.8
VRIQNPLLRENDFIEIELDRQELT [S7L]	2.09
VRIQNPNLRENDFIEIELDRQELT [S7N]	2.79
VRNQNPSLRENDFIEIELDRQELT [I3N]	4.28
VRLQNPSLRENDFIEIELDRQELT [I3L]	2.75
VRKQNPSLRENDFIEIELDRQELT [I3K]	3.44
VRVQNPSLRENDFIEIELDRQELT [I3V]	3.06
VRAQNPSLRENDFIEIELDRQELT [I3A]	4.17

Variant	protein stability index
VRCQNPSLRENDFIEIELDRQELT [I3C]	3.22
VRMQNPSLRENDFIEIELDRQELT [I3M]	3.61
VREQNPSLRENDFIEIELDRQELT [I3E]	4.63
VRYQNPSLRENDFIEIELDRQELT [I3Y]	3.11
VRGQNPSLRENDFIEIELDRQELT [I3G]	4.05
VRRQNPSLRENDFIEIELDRQELT [I3R]	3.88
VRTQNPSLRENDFIEIELDRQELT [I3T]	3.9
VRWQNPSLRENDFIEIELDRQELT [I3W]	2.4
VRDQNPSLRENDFIEIELDRQELT [I3D]	4.9
VRQQNPSLRENDFIEIELDRQELT [I3Q]	3.71
VRHQNPSLRENDFIEIELDRQELT [I3H]	4.17
VRSQNPSLRENDFIEIELDRQELT [I3S]	3.84
VRPQNPSLRENDFIEIELDRQELT [I3P]	3.77
VRFQNPSLRENDFIEIELDRQELT [I3F]	2.44
VRIQNPSLMENDFIEIELDRQELT [R9M]	1.97
VRIQNPSLIENDFIEIELDRQELT [R9I]	1.68
VRIQNPSLWENDFIEIELDRQELT [R9W]	2.14
VRIQNPSLLENDFIEIELDRQELT [R9L]	2.48
VRIQNPSLTENDFIEIELDRQELT [R9T]	2.54
VRIQNPSLAENDFIEIELDRQELT [R9A]	1.92
VRIQNPSLVENDFIEIELDRQELT [R9V]	2.03
VRIQNPSLNENDFIEIELDRQELT [R9N]	1.93
VRIQNPSLYENDFIEIELDRQELT [R9Y]	1.78
VRIQNPSLGENDFIEIELDRQELT [R9G]	2.32

Variant	protein stability index
VRIQNPSLSENDFIEIELDRQELT [R9S]	2.41
VRIQNPSLQENDFIEIELDRQELT [R9Q]	2.16
VRIQNPSLEENDFIEIELDRQELT [R9E]	2.74
VRIQNPSLCENDFIEIELDRQELT [R9C]	2.33
VRIQNPSLHENDFIEIELDRQELT [R9H]	1.81
VRIQNPSLKENDFIEIELDRQELT [R9K]	2.62
VRIQNPSLFENDFIEIELDRQELT [R9F]	1.51
VRIQNPSLPENDFIEIELDRQELT [R9P]	2.63
VRIQNPSLDENDFIEIELDRQELT [R9D]	2.23
VRIQNPSQRENDFIEIELDRQELT [L8Q]	3.11
VRIQNPSFRENDFIEIELDRQELT [L8F]	2.27
VRIQNPSCRENDFIEIELDRQELT [L8C]	2.36
VRIQNPSVRENDFIEIELDRQELT [L8V]	2.41
VRIQNPSIRENDFIEIELDRQELT [L8I]	3.35
VRIQNPSSRENDFIEIELDRQELT [L8S]	3.24
VRIQNPSTRENDFIEIELDRQELT [L8T]	3.42
VRIQNPSWRENDFIEIELDRQELT [L8W]	1.98
VRIQNPSMRENDFIEIELDRQELT [L8M]	2.42
VRIQNPSKRENDFIEIELDRQELT [L8K]	2.96
VRIQNPSYRENDFIEIELDRQELT [L8Y]	2.15
VRIQNPSGRENDFIEIELDRQELT [L8G]	2.08
VRIQNPSRRENDFIEIELDRQELT [L8R]	2.47
VRIQNPSDRENDFIEIELDRQELT [L8D]	2.76
VRIQNPSHRENDFIEIELDRQELT [L8H]	2.93

Variant	protein stability index
VRIQNPSARENDFIEIELDRQELT [L8A]	2.77
VRIQNPSERENDFIEIELDRQELT [L8E]	3.34
VRIQNPSNRENDFIEIELDRQELT [L8N]	2.43
VRIQNPSPRENDFIEIELDRQELT [L8P]	3.13
VRIANPSLRENDFIEIELDRQELT [Q4A]	2.16
VRIYNPSLRENDFIEIELDRQELT [Q4Y]	1.98
VRIGNPSLRENDFIEIELDRQELT [Q4G]	2.36
VRIHNPSLRENDFIEIELDRQELT [Q4H]	2.11
VRIMNPSLRENDFIEIELDRQELT [Q4M]	2.04
VRITNPSLRENDFIEIELDRQELT [Q4T]	2.27
VRIPNPSLRENDFIEIELDRQELT [Q4P]	2.63
VRIDNPSLRENDFIEIELDRQELT [Q4D]	2.88
VRIVNPSLRENDFIEIELDRQELT [Q4V]	2.01
VRIINPSLRENDFIEIELDRQELT [Q4I]	2.24
VRIENPSLRENDFIEIELDRQELT [Q4E]	2.31
VRIRNPSLRENDFIEIELDRQELT [Q4R]	2.12
VRICNPSLRENDFIEIELDRQELT [Q4C]	2.01
VRILNPSLRENDFIEIELDRQELT [Q4L]	1.89
VRIFNPSLRENDFIEIELDRQELT [Q4F]	1.92
VRINNPSLRENDFIEIELDRQELT [Q4N]	2.46
VRIWNPSLRENDFIEIELDRQELT [Q4W]	1.61
VRIKNPSLRENDFIEIELDRQELT [Q4K]	2.09
VRISNPSLRENDFIEIELDRQELT [Q4S]	2.29
VRIQNPSLRINDFIEIELDRQELT [E10I]	2

Variant	protein stability index
VRIQNPSLRKNDFIEIELDRQELT [E10K]	2.08
VRIQNPSLRGNDFIEIELDRQELT [E10G]	1.85
VRIQNPSLRDNDFIEIELDRQELT [E10D]	2.31
VRIQNPSLRRNDFIEIELDRQELT [E10R]	1.84
VRIQNPSLRQNDFIEIELDRQELT [E10Q]	2.37
VRIQNPSLRTNDFIEIELDRQELT [E10T]	2.28
VRIQNPSLRSNDFIEIELDRQELT [E10S]	2.51
VRIQNPSLRANDFIEIELDRQELT [E10A]	2.27
VRIQNPSLRLNDFIEIELDRQELT [E10L]	1.53
VRIQNPSLRWNDFIEIELDRQELT [E10W]	1.91
VRIQNPSLRMNDFIEIELDRQELT [E10M]	1.74
VRIQNPSLRFNDFIEIELDRQELT [E10F]	1.92
VRIQNPSLRHNDFIEIELDRQELT [E10H]	2.38
VRIQNPSLRNNDFIEIELDRQELT [E10N]	2.15
VRIQNPSLRVNDFIEIELDRQELT [E10V]	2.05
VRIQNPSLRPNDFIEIELDRQELT [E10P]	2.5
VRIQNPSLRCNDFIEIELDRQELT [E10C]	1.73
VRIQSPSLRENDFIEIELDRQELT [N5S]	1.74
VRIQHPSLRENDFIEIELDRQELT [N5H]	1.73
VRIQRPSLRENDFIEIELDRQELT [N5R]	2.29
VRIQFPSLRENDFIEIELDRQELT [N5F]	2.28
VRIQIPSLRENDFIEIELDRQELT [N5I]	2.43
VRIQYPSLRENDFIEIELDRQELT [N5Y]	1.36
VRIQLPSLRENDFIEIELDRQELT [N5L]	3.56

Variant	protein stability index
VRIQWPSLRENDFIEIELDRQELT [N5W]	2.23
VRIQAPSLRENDFIEIELDRQELT [N5A]	1.86
VRIQTPSLRENDFIEIELDRQELT [N5T]	2.16
VRIQQPSLRENDFIEIELDRQELT [N5Q]	2.07
VRIQGPSLRENDFIEIELDRQELT [N5G]	1.9
VRIQCPSLRENDFIEIELDRQELT [N5C]	2.45
VRIQPPSLRENDFIEIELDRQELT [N5P]	2.08
VRIQEPSLRENDFIEIELDRQELT [N5E]	3.08
VRIQDPSLRENDFIEIELDRQELT [N5D]	2.48
VRIQKPSLRENDFIEIELDRQELT [N5K]	2.74
VRIQMPSLRENDFIEIELDRQELT [N5M]	2.73
VLIQNPSLRENDFIEIELDRQELT [R2L]	2.24
VHIQNPSLRENDFIEIELDRQELT [R2H]	3.13
VFIQNPSLRENDFIEIELDRQELT [R2F]	1.87
VGIQNPSLRENDFIEIELDRQELT [R2G]	4.28
VPIQNPSLRENDFIEIELDRQELT [R2P]	4.93
VNIQNPSLRENDFIEIELDRQELT [R2N]	4.11
VIIQNPSLRENDFIEIELDRQELT [R2I]	2.29
VMIQNPSLRENDFIEIELDRQELT [R2M]	3.05
VCIQNPSLRENDFIEIELDRQELT [R2C]	2.93
VAIQNPSLRENDFIEIELDRQELT [R2A]	2.73
VQIQNPSLRENDFIEIELDRQELT [R2Q]	4.3
VYIQNPSLRENDFIEIELDRQELT [R2Y]	1.73
VVIQNPSLRENDFIEIELDRQELT [R2V]	2.46

Variant	protein stability index
VEIQNPSLRENDFIEIELDRQELT [R2E]	4.16
VKIQNPSLRENDFIEIELDRQELT [R2K]	2.98
VWIQNPSLRENDFIEIELDRQELT [R2W]	1.74
VDIQNPSLRENDFIEIELDRQELT [R2D]	4.69
VSIQNPSLRENDFIEIELDRQELT [R2S]	3.64
VTIQNPSLRENDFIEIELDRQELT [R2T]	3.5
TRIQNPSLRENDFIEIELDRQELT [V1T]	3.96
WRIQNPSLRENDFIEIELDRQELT [V1W]	2.99
SRIQNPSLRENDFIEIELDRQELT [V1S]	4.3
QRIQNPSLRENDFIEIELDRQELT [V1Q]	4.27
RRIQNPSLRENDFIEIELDRQELT [V1R]	3.63
KRIQNPSLRENDFIEIELDRQELT [V1K]	3.97
DRIQNPSLRENDFIEIELDRQELT [V1D]	5.15
FRIQNPSLRENDFIEIELDRQELT [V1F]	2.58
CRIQNPSLRENDFIEIELDRQELT [V1C]	3.51
MRIQNPSLRENDFIEIELDRQELT [V1M]	2.79
LRIQNPSLRENDFIEIELDRQELT [V1L]	2.71
ARIQNPSLRENDFIEIELDRQELT [V1A]	3.91
GRIQNPSLRENDFIEIELDRQELT [V1G]	4.27
PRIQNPSLRENDFIEIELDRQELT [V1P]	4.53
IRIQNPSLRENDFIEIELDRQELT [V1I]	2.03
YRIQNPSLRENDFIEIELDRQELT [V1Y]	3.41
ERIQNPSLRENDFIEIELDRQELT [V1E]	4.77
NRIQNPSLRENDFIEIELDRQELT [V1N]	4.46

Variant	protein stability index
HRIQNPSLRENDFIEIELDRQELT [V1H]	4.04
VRIQNTSLRENDFIEIELDRQELT [P6T]	2.02
VRIQNMSLRENDFIEIELDRQELT [P6M]	2.18
VRIQNWSLRENDFIEIELDRQELT [P6W]	1.77
VRIQNFSLRENDFIEIELDRQELT [P6F]	1.66
VRIQNQSLRENDFIEIELDRQELT [P6Q]	2.6
VRIQNSSLRENDFIEIELDRQELT [P6S]	2.16
VRIQNASLRENDFIEIELDRQELT [P6A]	2.75
VRIQNGSLRENDFIEIELDRQELT [P6G]	2.28
VRIQNCSLRENDFIEIELDRQELT [P6C]	2.06
VRIQNDSLRENDFIEIELDRQELT [P6D]	2.38
VRIQNLSLRENDFIEIELDRQELT [P6L]	2.17
VRIQNYSLRENDFIEIELDRQELT [P6Y]	1.73
VRIQNNSLRENDFIEIELDRQELT [P6N]	2.67
VRIQNRSLRENDFIEIELDRQELT [P6R]	2.69
VRIQNHSLRENDFIEIELDRQELT [P6H]	2.65
VRIQNISLRENDFIEIELDRQELT [P6I]	1.52
VRIQNVSLRENDFIEIELDRQELT [P6V]	2.02
VRIQNKSLRENDFIEIELDRQELT [P6K]	2.67
VRIQNESLRENDFIEIELDRQELT [P6E]	2.93

Reference: the supplement of paper PMC10567573
